Data reported in the Human Domainome abundance scans (Beltran et al. 2025).
± gives the uncertainty stated by the source.

B1: TOX high mobility group box family member 3, residues 256 to 323; numbered along this chain, O15405 (parent)
chain: QKPVSAYALFFRDTQAAIKGQNPNATFGEVSKIVASMWDSLGEEQKQVYKRKTEAAKKEYLKALAAYR
B2: POU domain, class 3, transcription factor 1, residues 247 to 324; numbered along this chain, Q03052 (parent)
chain: EDAPSSDDLEQFAKQFKQRRIKLGFTQADVGLALGTLYGNVFSQTTICRFEALQLSFKNMCKLKPLLNKWLEETDSSS

Variants of: B1
Experiment: abundance fitness (aPCA) (normalised: wild type 0, dead -1); higher = more abundant; growth selection in yeast, the domain comes from the species named
Details: Homo sapiens

| Variant | abundance fitness |
| --- | --- |
| L64T | 0.236 ± 0.056 |
| L64D | 0.323 ± 0.076 |
| L64I | 0.146 ± 0.1 |
| L64M | -0.031 ± 0.15 |
| K58M | -0.078 ± 0.066 |
| K58I | -0.204 ± 0.13 |
| K58H | -0.242 ± 0.15 |
| K58W | -0.351 ± 0.083 |
| K58D | -0.01 ± 0.094 |
| K58A | 0.016 ± 0.045 |
| K58G | -0.068 ± 0.051 |
| K58R | -0.043 ± 0.049 |
| K58Y | -0.279 ± 0.095 |
| K58C | -0.095 ± 0.075 |
| K58P | -0.113 ± 0.064 |
| K58L | -0.135 ± 0.057 |
| K58N | -0.089 ± 0.088 |
| K58T | -0.079 ± 0.059 |
| K58S | -0.051 ± 0.066 |
| K58Q | 0.039 ± 0.072 |
| K58V | 0.03 ± 0.061 |
| K58E | 0.044 ± 0.097 |
| A55S | -0.029 ± 0.041 |

| Variant | abundance fitness |
| --- | --- |
| A55L | -0.058 ± 0.041 |
| A55I | -0.148 ± 0.09 |
| A55Y | -0.276 ± 0.094 |
| A55G | -0.022 ± 0.051 |
| A55W | -0.297 ± 0.058 |
| A55R | -0.083 ± 0.046 |
| A55H | 0.015 ± 0.053 |
| A55Q | -0.001 ± 0.077 |
| A55C | -0.246 ± 0.095 |
| A55E | 0.076 ± 0.059 |
| A55F | -0.211 ± 0.077 |
| A55T | -0.041 ± 0.064 |
| A55K | 0.049 ± 0.057 |
| A55D | -0.104 ± 0.07 |
| A55P | -0.157 ± 0.051 |
| A55N | 0.001 ± 0.063 |
| K57D | 0.025 ± 0.063 |
| K57W | -0.381 ± 0.11 |
| K57R | -0.164 ± 0.053 |
| K57T | -0.093 ± 0.063 |
| K57A | -0.034 ± 0.069 |
| K57F | -0.23 ± 0.086 |
| K57P | -0.165 ± 0.065 |

| Variant | abundance fitness |
| --- | --- |
| K57M | 0.036 ± 0.088 |
| K57G | -0.125 ± 0.053 |
| K57S | -0.052 ± 0.05 |
| K57Y | -0.282 ± 0.091 |
| K57C | -0.275 ± 0.064 |
| K57V | -0.252 ± 0.057 |
| K57Q | -0.021 ± 0.09 |
| K57L | -0.346 ± 0.056 |
| K57N | 0.042 ± 0.077 |
| Y60E | 0.08 ± 0.062 |
| Y60F | 0.068 ± 0.29 |
| Y60S | 0.039 ± 0.057 |
| Y60R | -0.129 ± 0.069 |
| Y60Q | 0.128 ± 0.069 |
| Y60I | -0.556 ± 0.2 |
| Y60K | 0.128 ± 0.073 |
| Y60V | -0.073 ± 0.05 |
| Y60N | -0.236 ± 0.18 |
| Y60A | 0.043 ± 0.059 |
| Y60P | -0.052 ± 0.076 |
| Y60T | 0.148 ± 0.059 |
| Y60G | -0.101 ± 0.091 |
| Y60W | -0.258 ± 0.12 |

Variants of: B2
Experiment: as above
Details: Homo sapiens

| Variant | abundance fitness |
| --- | --- |
| A3E | -0.049 ± 0.08 |
| A3Y | -0.033 ± 0.28 |
| A3H | 0.258 ± 0.15 |
| A3C | 0.172 ± 0.11 |
| A3W | 0.098 ± 0.062 |
| A3M | 0.363 ± 0.071 |
| A3V | -0.08 ± 0.07 |
| A3P | 0.051 ± 0.087 |
| A3D | -0.164 ± 0.14 |
| A3F | 0.281 ± 0.12 |
| A3S | 0.238 ± 0.057 |
| A3R | 0.222 ± 0.049 |
| A3T | 0.238 ± 0.053 |
| A3N | 0.444 ± 0.11 |
| A3L | 0.362 ± 0.059 |
| A3G | -0.053 ± 0.063 |
| A3Q | 0.327 ± 0.08 |
| S5W | -0.206 ± 0.08 |
| S5E | 0.111 ± 0.071 |
| S5D | 0.388 ± 0.087 |
| S5F | -0.143 ± 0.17 |
| S5P | 0.067 ± 0.097 |
| S5M | 0.141 ± 0.078 |
| S5A | 0.048 ± 0.062 |
| S5K | 0.07 ± 0.074 |

| Variant | abundance fitness |
| --- | --- |
| S5V | 0.045 ± 0.062 |
| S5Y | -0.062 ± 0.15 |
| S5Q | 0.042 ± 0.097 |
| S5R | 0.164 ± 0.046 |
| S5C | 0.113 ± 0.093 |
| S5L | 0.129 ± 0.051 |
| S5H | 0.283 ± 0.1 |
| S5T | 0.09 ± 0.081 |
| S5N | 0.119 ± 0.13 |
| S5I | -0.234 ± 0.17 |
| D2F | 0.166 ± 0.1 |
| D2R | 0.312 ± 0.048 |
| D2I | 0.413 ± 0.15 |
| D2T | 0.459 ± 0.086 |
| D2N | 0.256 ± 0.091 |
| D2H | 0.29 ± 0.11 |
| D2C | 0.081 ± 0.13 |
| D2K | 0.452 ± 0.087 |
| D2L | 0.151 ± 0.066 |
| D2Y | 0.197 ± 0.13 |
| D2Q | 0.267 ± 0.15 |
| D2V | 0.171 ± 0.059 |
| D2M | 0.342 ± 0.082 |
| D2E | 0.41 ± 0.068 |
| D2A | 0.217 ± 0.066 |

| Variant | abundance fitness |
| --- | --- |
| D2W | 0.001 ± 0.08 |
| D2S | 0.453 ± 0.08 |
| D2P | 0.252 ± 0.11 |
| D2G | 0.411 ± 0.05 |
| E1Y | 0.05 ± 0.21 |
| E1L | 0.135 ± 0.086 |
| E1K | 0.066 ± 0.16 |
| E1D | 0.359 ± 0.11 |
| E1M | 0.319 ± 0.1 |
| E1N | -0.013 ± 0.16 |
| E1T | 0.088 ± 0.14 |
| E1Q | 0.209 ± 0.14 |
| E1A | -0.211 ± 0.11 |
| E1G | -0.031 ± 0.06 |
| E1V | 0.103 ± 0.067 |
| E1R | 0.102 ± 0.099 |
| E1W | 0.144 ± 0.12 |
| E1I | 0.3 ± 0.14 |
| E1S | 0.126 ± 0.1 |
| E1C | 0.281 ± 0.41 |
| E1F | 0.118 ± 0.3 |
| S6H | 0.308 ± 0.14 |
| S6C | 0.398 ± 0.14 |
| S6K | 0.49 ± 0.067 |
| S6I | 0.346 ± 0.13 |

| Variant | abundance fitness |
| --- | --- |
| S6E | 0.223 ± 0.069 |
| S6A | 0.427 ± 0.051 |
| S6D | 0.125 ± 0.096 |
| S6G | 0.321 ± 0.041 |
| S6F | 0.355 ± 0.15 |
| S6M | 0.473 ± 0.07 |
| P4M | 0.032 ± 0.081 |
| P4N | -0.403 ± 0.23 |
| P4E | -0.043 ± 0.079 |
| P4A | 0.008 ± 0.067 |
| P4R | -0.229 ± 0.056 |
| P4T | 0.019 ± 0.083 |
| P4C | 0.126 ± 0.099 |
| P4D | -0.134 ± 0.12 |
| P4W | 0.066 ± 0.062 |
| P4I | 0.13 ± 0.16 |
| P4Q | -0.24 ± 0.16 |
| P4H | 0.002 ± 0.22 |
| P4L | -0.031 ± 0.061 |
| P4Y | 0.169 ± 0.26 |
| P4G | -0.098 ± 0.052 |
| P4F | -0.366 ± 0.2 |
| P4K | -0.114 ± 0.091 |
